Molecular target: Anaphase-Promoting Complex/Cyclosome (APC), Xenopus, immunoprecipitated on Cdc27 antibody beads (Xenopus (endogenous in egg extract))
Experiment: pull-down

For “double HA-tagged human Cdc20, wild type (from UniProt Q12834 1-499) (natural protein)”, the percent of the deubiquitinated Cdc20 bound to the APC was 47%.
